The values that follow come from US7892803B2, “Gene and uses therefor to modify pasture qualities of crops” (Commonwealth Scientific and Industrial Research Organisation, priority 2001, dated 2011).

Series [1] can be described thus: LAR enzyme activity of recombinant LAR protein in E. coli extracts (radio-HPLC). The class given is biochemical. As to conditions: bacterial protein extracts after induction, HPLC system IIa. How it is done:
LAR was assayed essentially as described by Tanner and Kristiansen (1993). The standard assay contained in total volume of 100 μl assay buffer containing 10 mg glycerol, 10 μmol NaPi, 0.5 μmol NADPH, 0.1 μmol DDT, all adjusted to pH7 with NaOH, 0.25 nmol [^3H]-3,4-cis-leucocyanidin (1 μCi), or other suitable flavan-3,4-diol substrate (Table 2), and enzyme extract. The assay was initiated by the addition of an appropriate amount of enzyme extract and incubated at 30° C. for 30 min. The incubation was terminated by extraction with 0.2 ml ethyl acetate containing 10 nmol of unlabelled catechin as carrier. The ethyl acetate extracts were dried under a stream of nitrogen at room temperature. The residue was dissolved in 100 μl of water and analyzed by radio-HPLC using system II (see above and Table 2). In each radio-chromatogram of the assay mixtures derived from the leaf extracts referred to herein, only the substrate, 3-4-cis-leucocyanidin, or the product, catechin were detected.
The complete amino acid coding sequence of the LAR cDNA was introduced into the BamHI site of the pET3a expression vector to express the LAR382 polypeptide containing the 14 amino acid N-terminal T7 Tag. The resultant expression construct was then introduced into E. coli strain Rosetta(DE3) RARE/pLysS.
A truncated form of LAR comprising amino acids 1-317 was also introduced into the BamHI and HindIII sites of pQE30 expression vector to express the LAR317 polypeptide containing the 10 amino acid N-terminal RGS-6×His epitope. The resultant expression construct was then introduced into E. coli strain XL1 Blue.
Expression of the full length recombinant LAR382 protein, or the truncated form LAR317, was induced as described in the preceding Example. Bacterial protein extracts were assayed for LAR enzyme activity, essentially as described in Example 1.

Series [2] can be described thus: Storage stability of partially purified LAR enzyme preparation. The settings on record: 2,360 fold purified concentrate mixed with equal volume of glycerol, stored at −20 C. Format: physicochemical. Here is the method:
Fractions with LAR activity were combined and then concentrated to a final volume of 1 ml by applying nitrogen over a YM10 membrane (Amicon). The concentrate was mixed with an equal volume of glycerol and stored at −20 C.
The final yield of enzyme activity was 8.7% and purification was 2,360 fold.

B1: LAR382: Full length recombinant D. uncinatum LAR polypeptide (SEQ ID NO: 29) with N-terminal T7 Tag, expressed in E. coli from pET3a (protein, listed as Desmodium uncinatum)
chain: MTVSGAIPSMTKNRTLVVGGTGFIGQFITKASLGFGYPTFLLVRPGPVSPSKAVIIKTFQDKGAKVIYGVINDKECMEKILKEYEIDVVISLVGGARLLDQLTLLEAIKSVKTIKRFLPSEFGHDVDRTDPVEPGLTMYKEKRLVRRAVEEYGIPFTNICCNSIASWPYYDNCHPSQVPPPMDQFQIYGDGNTKAYFIDGNDIGKFTMKTIDDIRTLNKNVHFRPSSNCYSINELASLWEKKIGRTLPRFTVTADKLLAHAAENIIPESIVSSFTHDIFINGCQVNFSIDEHSDVEIDTLYPDEKFRSLDDCYEDFVPMVHDKIHAGKSGEIKIKDGKPLVQTGTIEEINKDIKTLVETQPNEEIKKDMKALVEAVPISAMG
modifications: N-terminal T7 tag
Consider B1, for which the results for the “LAR enzyme activity (reduction of leucocyanidin to catechin)” value in series [1] and in series [1] (listed as pET LAR382) were “catalysed the reduction of [4-^3H]-2,3-trans-3,4-cis-leucocyanidin” and “LAR activity sufficient to convert all of the leucocyanidin substrate into catechin”, respectively.

B2: LAR: Leucoanthocyanidin reductase enzyme partially purified 2,360 fold from young leaves of Desmodium uncinatum (protein, listed as Desmodium uncinatum)
chain: B1 chain
For the molecule B2, the “stability of LAR enzyme activity on storage” value in series [2] was “stable for up to one year”.

B3: LAR317: Truncated recombinant LAR, amino acids 1-317 of SEQ ID NO: 29, with N-terminal RGS-6×His epitope, expressed in E. coli (protein, listed as Desmodium uncinatum)
chain: MTVSGAIPSMTKNRTLVVGGTGFIGQFITKASLGFGYPTFLLVRPGPVSPSKAVIIKTFQDKGAKVIYGVINDKECMEKILKEYEIDVVISLVGGARLLDQLTLLEAIKSVKTIKRFLPSEFGHDVDRTDPVEPGLTMYKEKRLVRRAVEEYGIPFTNICCNSIASWPYYDNCHPSQVPPPMDQFQIYGDGNTKAYFIDGNDIGKFTMKTIDDIRTLNKNVHFRPSSNCYSINELASLWEKKIGRTLPRFTVTADKLLAHAAENIIPESIVSSFTHDIFINGCQVNFSIDEHSDVEIDTLYPDEKFRSLDDCYEDFV
modifications: N-terminal RGS-6xHis tag
Regarding B3, the “LAR enzyme activity (reduction of leucocyanidin to catechin)” value is “catalysed the reduction of [4-^3H]-2,3-trans-3,4-cis-leucocyanidin” in series [1] and “LAR activity sufficient to convert all of the leucocyanidin substrate into catechin” in series [1] (listed as pET LAR317).
